Source: the supplement of paper PMC10065799, “High-throughput profiling of sequence recognition by tyrosine kinases and SH2 domains using bacterial peptide display” (eLife, 2023)

System: AncSZ
Assay: phosphorylation enrichment, bacterial display (enrichment ratio); higher = better substrate or ligand; peptides without Tyr show the background
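Also: 11-residue human phosphosite peptides and single-mutation variants displayed on the E. coli surface, counted by deep sequencing, each peptide's frequency after selection divided by its frequency in the unselected input library; frequency after pTyr selection over input frequency; kinase dosed for 20-30% of maximal phosphorylation in three min.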

**Q.** Which phosphorylation enrichment does the source give for QHNPEYVQQAS [LRRC7_Y1058] here?
**A.** The phosphorylation enrichment was 0.843.

**Q.** For SENPKYPEVGD [TMEM43_Y233], which phosphorylation enrichment is on record?
**A.** The phosphorylation enrichment was 1.01.

**Q.** With TYEPNYGTVKR [RAPGEF6_Y1447_Q1452R] as the sequence, how does the phosphorylation enrichment read?
**A.** The phosphorylation enrichment was 0.567.

**Q.** How did the phosphorylation enrichment turn out when SNFRAYATEPH [TNNI3_Y29_YF] was run?
**A.** Its phosphorylation enrichment is 0.647.

**Q.** IRGNMYFENSF [EGFR_Y112_YF] was tested. Which phosphorylation enrichment did it give?
**A.** Its phosphorylation enrichment is 0.879.

**Q.** WKKEIYEESST [MOCS2_Y170] was tested. Which phosphorylation enrichment did it give?
**A.** Its phosphorylation enrichment is 1.04.

**Q.** For LGRGKSSEVFE [CSNK2A1_Y50_Y50S], which phosphorylation enrichment is on record?
**A.** Its phosphorylation enrichment is 0.923.

**Q.** Which phosphorylation enrichment does the source give for KSMSVYCTPNK [ATP2A2_Y497] here?
**A.** The phosphorylation enrichment was 1.13.

**Q.** For VYAADYYKLLG [ROR2_Y645], which phosphorylation enrichment is on record?
**A.** The phosphorylation enrichment was 1.28.

**Q.** How did the phosphorylation enrichment turn out when KDHPDYKYPPR [SOX10_Y171_Q174P] was run?
**A.** The phosphorylation enrichment was 0.612.

**Q.** Which phosphorylation enrichment does the source give for ESDGAYIQRMQ [CCDC137_Y125_H127Q] here?
**A.** The phosphorylation enrichment was 0.687.

**Q.** RDMNAYISPSP [MMAA_Y207_R209S] was tested. Which phosphorylation enrichment did it give?
**A.** The phosphorylation enrichment was 0.505.

**Q.** ARKRKYFKKHE [NFIX_Y40] was tested. Which phosphorylation enrichment did it give?
**A.** Its phosphorylation enrichment is 0.602.

**Q.** HTEGEYSSLEH [IDH3B_Y171_Q166H] was tested. Which phosphorylation enrichment did it give?
**A.** The phosphorylation enrichment was 1.85.

**Q.** With IGEGTSGVVYK [CDK2_Y15_Y15S] as the sequence, how does the phosphorylation enrichment read?
**A.** Its phosphorylation enrichment is 0.574.

**Q.** How did the phosphorylation enrichment turn out when KLPDAYERLIL [G6PD_Y437] was run?
**A.** Its phosphorylation enrichment is 0.756.

**Q.** How did the phosphorylation enrichment turn out when HSGVSYYINLC [IGF2R_Y2024_N2020S] was run?
**A.** The phosphorylation enrichment was 1.59.

**Q.** How did the phosphorylation enrichment turn out when KDHPDYKYQRR [SOX10_Y171_P175R] was run?
**A.** Its phosphorylation enrichment is 0.483.

**Q.** For QRRNVYYYSYL [PTEN_Y176_Y174N], which phosphorylation enrichment is on record?
**A.** Its phosphorylation enrichment is 1.72.

**Q.** Which phosphorylation enrichment does the source give for GDYLSYREFHL [ERBIN_Y1107_S1112L] here?
**A.** The phosphorylation enrichment was 1.8.

**Q.** For DPTFGYEDFTR [SESN2_Y323], which phosphorylation enrichment is on record?
**A.** The phosphorylation enrichment was 1.08.

**Q.** How did the phosphorylation enrichment turn out when PGIRMYQVQYN [LRFN1_Y454] was run?
**A.** Its phosphorylation enrichment is 1.06.

**Q.** How did the phosphorylation enrichment turn out when LESETYRRLLD [KRT12_Y429_I426S] was run?
**A.** Its phosphorylation enrichment is 1.44.

**Q.** Which phosphorylation enrichment does the source give for IHHIDYYKETT [FGFR1_Y653_K656E] here?
**A.** Its phosphorylation enrichment is 0.694.

**Q.** Which phosphorylation enrichment does the source give for QRIHDYYEHRY [HCN4_Y554] here?
**A.** Its phosphorylation enrichment is 1.25.

**Q.** Which phosphorylation enrichment does the source give for LTSKPYAFTAQ [NDUFS1_Y236_R241Q] here?
**A.** The phosphorylation enrichment was 0.542.

**Q.** For ERMKVYVPIGF [EPHX1_Y393_T396I], which phosphorylation enrichment is on record?
**A.** The phosphorylation enrichment was 0.67.

**Q.** PTYEHYANSTQ [SLC12A3_Y70] was tested. Which phosphorylation enrichment did it give?
**A.** Its phosphorylation enrichment is 1.05.

**Q.** Which phosphorylation enrichment does the source give for DSSIRYLQEIF [FGG_Y135_YF] here?
**A.** Its phosphorylation enrichment is 0.868.

**Q.** How did the phosphorylation enrichment turn out when IDAICYFRMEN [NPHS2_Y194_YF] was run?
**A.** Its phosphorylation enrichment is 1.26.

**Q.** With TSYQMYDKGLV [IARS2_Y231_F227S] as the sequence, how does the phosphorylation enrichment read?
**A.** The phosphorylation enrichment was 0.986.

**Q.** Which phosphorylation enrichment does the source give for EKKDVYKAGEQ [CFH_Y1008] here?
**A.** Its phosphorylation enrichment is 1.08.

**Q.** LNPFIYSLRNW [OR1A2_Y288] was tested. Which phosphorylation enrichment did it give?
**A.** The phosphorylation enrichment was 2.05.

Target: MERTK (UniProt Q12866)
Sequence (Q12866 whole entry, looked up): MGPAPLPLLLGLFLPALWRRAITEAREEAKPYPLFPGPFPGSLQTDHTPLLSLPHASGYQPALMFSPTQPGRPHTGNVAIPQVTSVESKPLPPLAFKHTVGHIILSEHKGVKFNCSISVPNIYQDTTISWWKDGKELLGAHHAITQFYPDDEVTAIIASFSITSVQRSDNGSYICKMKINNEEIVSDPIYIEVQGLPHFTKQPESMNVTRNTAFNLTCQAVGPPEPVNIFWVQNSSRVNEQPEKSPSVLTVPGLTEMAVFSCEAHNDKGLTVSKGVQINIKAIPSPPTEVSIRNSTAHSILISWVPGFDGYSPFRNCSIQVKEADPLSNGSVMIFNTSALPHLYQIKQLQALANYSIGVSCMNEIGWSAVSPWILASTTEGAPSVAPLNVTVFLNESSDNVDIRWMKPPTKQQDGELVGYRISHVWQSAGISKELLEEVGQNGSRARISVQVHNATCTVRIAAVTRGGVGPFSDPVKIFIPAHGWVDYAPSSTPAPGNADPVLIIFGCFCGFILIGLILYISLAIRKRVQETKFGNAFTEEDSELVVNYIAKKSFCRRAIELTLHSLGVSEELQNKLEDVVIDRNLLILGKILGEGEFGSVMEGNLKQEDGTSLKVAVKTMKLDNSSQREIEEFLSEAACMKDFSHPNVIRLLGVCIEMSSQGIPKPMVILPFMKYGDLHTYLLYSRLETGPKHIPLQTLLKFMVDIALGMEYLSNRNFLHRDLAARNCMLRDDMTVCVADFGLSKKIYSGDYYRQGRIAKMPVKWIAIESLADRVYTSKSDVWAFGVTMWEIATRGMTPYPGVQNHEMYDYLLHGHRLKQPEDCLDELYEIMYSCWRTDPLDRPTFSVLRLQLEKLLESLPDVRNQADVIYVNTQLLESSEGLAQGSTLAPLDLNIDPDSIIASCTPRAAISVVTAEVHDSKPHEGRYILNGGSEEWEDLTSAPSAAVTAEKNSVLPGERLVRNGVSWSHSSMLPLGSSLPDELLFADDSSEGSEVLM
Assay: as above

**Q.** With QHNPEYVQQAS [LRRC7_Y1058] as the sequence, how does the phosphorylation enrichment read?
**A.** The phosphorylation enrichment was 0.423.

**Q.** SENPKYPEVGD [TMEM43_Y233] was tested. Which phosphorylation enrichment did it give?
**A.** The phosphorylation enrichment was 0.522.

**Q.** How did the phosphorylation enrichment turn out when TYEPNYGTVKR [RAPGEF6_Y1447_Q1452R] was run?
**A.** The phosphorylation enrichment was 0.868.

**Q.** How did the phosphorylation enrichment turn out when SNFRAYATEPH [TNNI3_Y29_YF] was run?
**A.** Its phosphorylation enrichment is 0.378.

**Q.** Which phosphorylation enrichment does the source give for IRGNMYFENSF [EGFR_Y112_YF] here?
**A.** The phosphorylation enrichment was 0.536.

**Q.** For WKKEIYEESST [MOCS2_Y170], which phosphorylation enrichment is on record?
**A.** Its phosphorylation enrichment is 0.378.

**Q.** Which phosphorylation enrichment does the source give for LGRGKSSEVFE [CSNK2A1_Y50_Y50S] here?
**A.** The phosphorylation enrichment was 0.639.

**Q.** With KSMSVYCTPNK [ATP2A2_Y497] as the sequence, how does the phosphorylation enrichment read?
**A.** Its phosphorylation enrichment is 0.653.

**Q.** VYAADYYKLLG [ROR2_Y645] was tested. Which phosphorylation enrichment did it give?
**A.** Its phosphorylation enrichment is 5.31.

**Q.** How did the phosphorylation enrichment turn out when KDHPDYKYPPR [SOX10_Y171_Q174P] was run?
**A.** The phosphorylation enrichment was 0.331.

**Q.** Which phosphorylation enrichment does the source give for ESDGAYIQRMQ [CCDC137_Y125_H127Q] here?
**A.** Its phosphorylation enrichment is 0.43.

**Q.** For RDMNAYISPSP [MMAA_Y207_R209S], which phosphorylation enrichment is on record?
**A.** The phosphorylation enrichment was 0.451.

**Q.** Which phosphorylation enrichment does the source give for ARKRKYFKKHE [NFIX_Y40] here?
**A.** The phosphorylation enrichment was 0.472.

**Q.** With HTEGEYSSLEH [IDH3B_Y171_Q166H] as the sequence, how does the phosphorylation enrichment read?
**A.** Its phosphorylation enrichment is 0.764.

**Q.** With IGEGTSGVVYK [CDK2_Y15_Y15S] as the sequence, how does the phosphorylation enrichment read?
**A.** The phosphorylation enrichment was 0.274.

**Q.** With KLPDAYERLIL [G6PD_Y437] as the sequence, how does the phosphorylation enrichment read?
**A.** The phosphorylation enrichment was 0.522.

**Q.** Which phosphorylation enrichment does the source give for HSGVSYYINLC [IGF2R_Y2024_N2020S] here?
**A.** Its phosphorylation enrichment is 0.563.

**Q.** For KDHPDYKYQRR [SOX10_Y171_P175R], which phosphorylation enrichment is on record?
**A.** Its phosphorylation enrichment is 0.349.

**Q.** QRRNVYYYSYL [PTEN_Y176_Y174N] was tested. Which phosphorylation enrichment did it give?
**A.** Its phosphorylation enrichment is 16.

**Q.** How did the phosphorylation enrichment turn out when GDYLSYREFHL [ERBIN_Y1107_S1112L] was run?
**A.** The phosphorylation enrichment was 0.478.

**Q.** With DPTFGYEDFTR [SESN2_Y323] as the sequence, how does the phosphorylation enrichment read?
**A.** Its phosphorylation enrichment is 0.545.

**Q.** Which phosphorylation enrichment does the source give for PGIRMYQVQYN [LRFN1_Y454] here?
**A.** The phosphorylation enrichment was 0.764.

**Q.** For LESETYRRLLD [KRT12_Y429_I426S], which phosphorylation enrichment is on record?
**A.** Its phosphorylation enrichment is 0.664.

**Q.** With IHHIDYYKETT [FGFR1_Y653_K656E] as the sequence, how does the phosphorylation enrichment read?
**A.** Its phosphorylation enrichment is 0.491.

**Q.** QRIHDYYEHRY [HCN4_Y554] was tested. Which phosphorylation enrichment did it give?
**A.** The phosphorylation enrichment was 0.433.

**Q.** How did the phosphorylation enrichment turn out when LTSKPYAFTAQ [NDUFS1_Y236_R241Q] was run?
**A.** The phosphorylation enrichment was 0.411.

**Q.** With ERMKVYVPIGF [EPHX1_Y393_T396I] as the sequence, how does the phosphorylation enrichment read?
**A.** The phosphorylation enrichment was 0.478.

**Q.** How did the phosphorylation enrichment turn out when PTYEHYANSTQ [SLC12A3_Y70] was run?
**A.** The phosphorylation enrichment was 0.912.

**Q.** With DSSIRYLQEIF [FGG_Y135_YF] as the sequence, how does the phosphorylation enrichment read?
**A.** Its phosphorylation enrichment is 0.542.

**Q.** How did the phosphorylation enrichment turn out when IDAICYFRMEN [NPHS2_Y194_YF] was run?
**A.** The phosphorylation enrichment was 0.556.

**Q.** TSYQMYDKGLV [IARS2_Y231_F227S] was tested. Which phosphorylation enrichment did it give?
**A.** Its phosphorylation enrichment is 0.463.

**Q.** Which phosphorylation enrichment does the source give for EKKDVYKAGEQ [CFH_Y1008] here?
**A.** The phosphorylation enrichment was 0.425.

**Q.** LNPFIYSLRNW [OR1A2_Y288] was tested. Which phosphorylation enrichment did it give?
**A.** Its phosphorylation enrichment is 4.23.
